We go through 2 substances from patent publication US20210403538A1.

Experiment [1] deals with Jurkat-EBOV GPCL (Zaire ebolavirus (EBOV), Makona).
For experiment [2], the target named is Jurkat-EBOV GP (Zaire ebolavirus (EBOV), Makona).

Chain of rEBOV-520 LALA (antibody) (VH): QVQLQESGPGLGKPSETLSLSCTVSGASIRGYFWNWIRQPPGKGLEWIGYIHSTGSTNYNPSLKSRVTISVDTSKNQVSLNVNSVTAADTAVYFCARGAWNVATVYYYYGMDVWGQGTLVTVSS
Chain of rEBOV-520 LALA (antibody) (VL): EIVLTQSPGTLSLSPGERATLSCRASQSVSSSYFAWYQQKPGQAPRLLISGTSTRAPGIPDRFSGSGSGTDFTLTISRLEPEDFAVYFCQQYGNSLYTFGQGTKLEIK

For the substance MR72 (antibody), the fold decrease in binding in experiment [1] amounted to 2.8 fold.

rEBOV-520 LALA (antibody): the fold increase in binding in experiment [2] was less than 4.6 fold.
